Legend:
Ubc13 = Ubc13 (UniProt P61088); assay: NMR titration
Ubc13 C87K/K92T/K94Q = Ubc13 C87K/K92T/K94Q (UniProt P61088); assay: NMR
Chain of Ubc13 C87K/K92T/K94Q (P61088 whole entry C87K/K92T/K94Q): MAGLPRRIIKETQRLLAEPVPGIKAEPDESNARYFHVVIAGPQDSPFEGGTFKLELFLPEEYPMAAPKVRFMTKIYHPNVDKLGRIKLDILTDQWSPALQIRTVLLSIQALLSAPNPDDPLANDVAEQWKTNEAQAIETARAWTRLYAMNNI

Chain of Ubc13 (P61088 whole entry): as the sequence (P61088 whole entry C87K/K92T/K94Q) above, with K87C, T92K, Q94K counted along it

| Substance | Kd (Ubc13) [µM] | population of the closed state of the conjugate (Ubc13 C87K/K92T/K94Q) [%] | population of the closed state of the conjugate with RNF38 RING (Ubc13 C87K/K92T/K94Q) [%] |
| --- | --- | --- | --- |
| RNF38 RING domain (residues 387-465) (domain or fragment) | 55 |  |  |
| ubiquitin (wild type, Q40Ub) (from UniProt P0CG48 1-76) (natural protein) |  | 60 | 80 |

Source: article doi:10.1101/2023.05.22.541748
